The source of these data is IntAct's records for PubMed 10230800.

Sequences and labels used below:
B1: Slowpoke-binding protein (Drosophila melanogaster (Fruit fly)), Q8IPH9 (parent)
chain: MFKFNKAAQQQRIDNRNSAVTGHDPFVRPPVPEKKVRNIMKKLHKANGLKRSNSAIEFDVSALTAANRRQIYSSNRSASSEQDNSDLSEHSEKSPLVSARLDNLARLFFSKSMPAETGSRDTIDSVLTTRPNIKYQYSALDSGNGIVERSPRERAQREKALNATQEWIQGANGRYEVIAHLDEIGSRHGKNWFLVTDASVRTDRLQTLLPLPPDCVAFEDLPPNECAREILMELLGSLHHPYIYPVLDLGFLRNSSYNYACLVTPFNSRGSLKDLIYKAQWNEPWARKYTRKPNGLPVSQVQRLGRQILEALLFLKERGFPLHGHLHSGNVILQNGAARLSGLENGLLGLSSRINAVMWSRSVTEIENVDIVCFGHLLYEMCTGQELTTPKPSMRVLEMELQHYPQIGQTRKQILEILGLIFEPPSGVCPSVEDLVLCDLFRSIDLRELRGPCFSTIKPSLSRSTLNLLQAVKKRQCASLGHSLSEANSPCTPPSTPHDRRTGVLPAPYEVFRMY
partner: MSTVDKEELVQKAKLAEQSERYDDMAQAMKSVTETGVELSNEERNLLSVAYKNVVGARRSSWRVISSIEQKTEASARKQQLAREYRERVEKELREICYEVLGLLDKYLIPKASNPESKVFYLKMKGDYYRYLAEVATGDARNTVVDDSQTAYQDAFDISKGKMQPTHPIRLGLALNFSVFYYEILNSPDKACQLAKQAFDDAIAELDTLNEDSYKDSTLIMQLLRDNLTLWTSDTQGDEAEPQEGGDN

Variants of B1 are the subject of this test. As to conditions: with 1433z_drome 14-3-3zeta.
For S54A;S79A, the “effect of a mutation on the interaction” value is given as “decreasing interaction strength”.
